Test results taken from the supplement of paper PMC12042874.
± gives the uncertainty stated by the source.

Assay: amyloid nucleation score (Sup35N fusion, yeast selection) (log enrichment); library NNK2; higher = more nucleation; inactive = no reads after selection
In short: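 DiMSum was used to calculate nucleation scores as log enrichment of output over input reads, centred on the mode score of non-aggregating sequences. Sequences with fewer than 100 input reads were not scored. Input and output came from Illumina sequencing of plasmid inserts in psi-negative yeast expressing peptides of 20 random codons fused to Sup35N, induced 24 hours with 100 μM copper sulfate and then grown 7 days at 30°C on medium lacking adenine and uracil.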

Substance: RYRSFICALLRGFTDLACL
- amyloid nucleation score: -1.53 ± 1.1

Substance: VDGTFYLTYFTTCVQSIFFA
- amyloid nucleation score: 0.558 ± 0.6

Substance: SSSMSESAT
- amyloid nucleation score: inactive

Substance: VRLRASDKCLNV
- amyloid nucleation score: 1.59 ± 0.27

Substance: WLRDYRLWATT
- amyloid nucleation score: -0.223 ± 0.63

Substance: LGIIQTVCRHGLQFMCVSRG
- amyloid nucleation score: -0.122 ± 0.49

Substance: CVDTSFCLYARELILCAR
- amyloid nucleation score: -0.121 ± 0.5

Substance: VAHSVTGFQWHACSREMNFR
- amyloid nucleation score: 4.57 ± 0.12

Substance: QWNMRAAQCTTNS
- amyloid nucleation score: 0.722 ± 0.34

Substance: FRLYPVPESKDLGRPGMPRQ
- amyloid nucleation score: 0.308 ± 0.23

Substance: LCMKYGVCVYVLFGWCKYTV
- amyloid nucleation score: -0.068 ± 0.79

Substance: ARWLSSAYSMIYEFSLLKSW
- amyloid nucleation score: 0.706 ± 0.74

Substance: NIFNRA
- amyloid nucleation score: inactive

Substance: LGMRLFRNVCYGLPSRSNRR
- amyloid nucleation score: 1.64 ± 0.41

Substance: CSCMKFWKFLLIRQSYKPGM
- amyloid nucleation score: 2.16 ± 0.18

Substance: TCLTFRFI
- amyloid nucleation score: inactive

Substance: LFECMPYGLNAKDSCADSNV
- amyloid nucleation score: -0.303 ± 0.5

Substance: IHNKWNKMYDRPYLIKIVAS
- amyloid nucleation score: -0.37 ± 0.36

Substance: LCSVWEVFLYFF
- amyloid nucleation score: 1.84 ± 0.11

Substance: TGLNLFRDSQTGELGGGYTR
- amyloid nucleation score: 5.495 ± 0.049

Substance: FTLLVYIFLYMMLIGNSFFM
- amyloid nucleation score: inactive

Substance: RCVSRTR
- amyloid nucleation score: 0.147 ± 1.1

Substance: LIAQMM
- amyloid nucleation score: -1.22 ± 0.48

Substance: ILFVLWKLDRRPCSLLEYTQ
- amyloid nucleation score: 0.463 ± 0.56

Substance: WKMWRVKAVNR
- amyloid nucleation score: 0.935 ± 0.35

Substance: RPVDPWLCRKWLVV
- amyloid nucleation score: inactive

Substance: VLPGVSFFTYRFKKF
- amyloid nucleation score: inactive

Substance: FFRCVLITPD
- amyloid nucleation score: 0.179 ± 0.53

Substance: SCRVLIGV
- amyloid nucleation score: 0.878 ± 0.46

Substance: RRVYCNIIVSGVCVSGE
- amyloid nucleation score: 1.42 ± 0.12

Substance: NFENCVFWYNLYCNFD
- amyloid nucleation score: 7.516 ± 0.047

Substance: YNSMSVSILNVYYDQPWSLS
- amyloid nucleation score: 8.768 ± 0.049

Substance: GLSVKTGQGSGFPDLCVGKR
- amyloid nucleation score: 0.838 ± 0.17

Substance: CGNPFGLSTHFNYLRRMPWE
- amyloid nucleation score: 0.116 ± 0.25

Substance: CPLNLPTLGRLATEKRAWG
- amyloid nucleation score: -0.177 ± 0.79

Substance: VCGGVRYYLNTFYIKR
- amyloid nucleation score: 7.566 ± 0.054

Substance: STVVLSHRCLLSCE
- amyloid nucleation score: -0.656 ± 1.1

Substance: QSTYCQRRCVC
- amyloid nucleation score: 0.042 ± 0.63

Substance: DQAHRGSCDVS
- amyloid nucleation score: 0.214 ± 0.63

Substance: LVWRDV
- amyloid nucleation score: 0.729 ± 0.51

Substance: PMSDMFYFFGFECSRLIMSN
- amyloid nucleation score: inactive

Substance: FDSSSESLGKGKCY
- amyloid nucleation score: 0.225 ± 0.49

Substance: YQSDLTYLE
- amyloid nucleation score: -0.518 ± 0.35

Substance: HLLPWMRVLYTYVCSNIQMF
- amyloid nucleation score: -0.45 ± 0.36

Substance: LVKKWVWLLCCYRISWGRLR
- amyloid nucleation score: -0.346 ± 0.28

Substance: MSVPFLWFTYHFSRPVLSVT
- amyloid nucleation score: 0.389 ± 0.27

Substance: DGFVGALDGVISSCWNTLRG
- amyloid nucleation score: -0.701 ± 0.63

Substance: MFGGLGTDSLA
- amyloid nucleation score: -0.46 ± 1

Substance: HSHVRLWSLRFDAHPNWHDK
- amyloid nucleation score: 1.15 ± 0.27

Substance: IYKSRRVRHVLDVVL
- amyloid nucleation score: -0.241 ± 0.56

Substance: RLRSILLSWCCRFGGSQLRA
- amyloid nucleation score: 0.581 ± 0.39

Substance: ISRRHGFIILLGNDIRRVDY
- amyloid nucleation score: 0.554 ± 0.81

Substance: HAGVMLSFNIVVPNFTYSKE
- amyloid nucleation score: 8.448 ± 0.051

Substance: DMLVDYSIKDDRVYKVRLPM
- amyloid nucleation score: -1.61 ± 0.62

Substance: FGFFTTYSELAVQVIQSAVT
- amyloid nucleation score: -0.032 ± 1.1

Substance: YFSCITILGFGSSNSWRRIM
- amyloid nucleation score: -1.02 ± 0.78

Substance: KHFRREW
- amyloid nucleation score: 1.35 ± 0.41

Substance: YQLRCKCSTF
- amyloid nucleation score: -0.757 ± 0.41

Substance: NICRM
- amyloid nucleation score: -0.058 ± 0.53

Substance: EFWVLNYVITNLHWQTYSIM
- amyloid nucleation score: -1.29 ± 1

Substance: SHYCGLVCLELEIWLYP
- amyloid nucleation score: 1.31 ± 0.18

Substance: TRQLIYHWDKFSPHPAQFLT
- amyloid nucleation score: 0.652 ± 0.64

Substance: GVFSY
- amyloid nucleation score: -0.967 ± 0.29

Substance: KLAYCYSSYSHHD
- amyloid nucleation score: 0.316 ± 0.65

Substance: GIIAMHSLPRQIGIVLFIAR
- amyloid nucleation score: 3.3 ± 0.088

Substance: HWGSVAGDFWGFVVWSRFGR
- amyloid nucleation score: 0.234 ± 0.34

Substance: NSIESNSCKWVRNVCTANSG
- amyloid nucleation score: -0.587 ± 0.76

Substance: YYHIDYYRYWPALLGCFKYS
- amyloid nucleation score: -0.898 ± 0.34

Substance: RQDPDSLTLHRLSSGGIR
- amyloid nucleation score: 0.366 ± 0.64

Substance: VADHVCFVCRHTLDP
- amyloid nucleation score: -0.317 ± 0.62

Substance: CMGDNVIC
- amyloid nucleation score: -0.954 ± 0.37

Substance: ALFTLRVMLTTYYWQGMAEF
- amyloid nucleation score: 0.296 ± 0.31

Substance: YFWQEIVAFNKVESLILELG
- amyloid nucleation score: -0.451 ± 1

Substance: SESWSSCIMA
- amyloid nucleation score: 1.33 ± 0.39

Substance: SYYINFISVRILDLNKFNVQ
- amyloid nucleation score: 5.03 ± 0.11

Substance: VSTRSLF
- amyloid nucleation score: inactive

Substance: SGPIEIRPCIPRKLVCSYRH
- amyloid nucleation score: 1.01 ± 0.53

Substance: HFILAIFLYCSIWIFEFFSL
- amyloid nucleation score: -1.81 ± 1

Substance: SSPSYSSSSHKRTL
- amyloid nucleation score: 2.14 ± 0.25

Substance: VIMMSNNSERYYVEQIFVSG
- amyloid nucleation score: 0.09 ± 0.41

Substance: RRICTGFIRLVGYVYYAAHL
- amyloid nucleation score: -0.29 ± 0.24

Substance: QNIKIW
- amyloid nucleation score: -1.02 ± 0.55

Substance: SSKTGWSHGIMVQPK
- amyloid nucleation score: inactive

Substance: YRRLRTNLLWRQSRSY
- amyloid nucleation score: 0.817 ± 0.54

Substance: KYGTSIVTHGAVKDAKYCCR
- amyloid nucleation score: 3.44 ± 0.062

Substance: SMATTE
- amyloid nucleation score: 8.377 ± 0.063

Substance: LKLRSVKSFDFVWMIVAAEV
- amyloid nucleation score: 0.482 ± 0.26
